System: NC(=O)c1ccc[n+]([C@@H]2O[C@H](COP(=O)(O)OP(=O)(O)OC[C@H]3O[C@@H](n4cnc5c(N)ncnc54)[C@H](O)[C@@H]3O)[C@@H](O)[C@H]2O)c1
Experiment: purified protein
Settings: without added Co, methanol 0.75-3000 mM, 50 mM Bis-tris propane, 55 °C, rapid-equilibrium, NAD+ binds first, brackets 95% confidence interval, varied: cofactor

TPOSR Adh1 (Desulfofundulus kuznetsovii)
Km: 0.550 [0.26, 1.3] mM
kcat: 1.76 s⁻¹
